Data on 84 variants can be found in the RNAGym collection of RNA variant scans (doi:10.1093/molbev/msab373).

B1: Azoarcus group I ribozyme (parent)
chain: GUGCCUUGCGCCGGGAAACCACGCAAGGGAUGGUGUCAAAUUCGGCGAAACCUAAGCGCCCGCCCGGGCGUAUGGCAACGCCGAGCCAAGCUUCGGCGCCUGCGCCGAUGAAGGUGUAGAGACUAGACGGCACCCACCUAAGGCAAACGCUAUGGUGAAGGCAUAGUCCAGGGAGUGGCGAAAGUCACACAAACCGG

The variants in the series derive from B1. Put plainly: reverse-splicing fitness (ratio to wild type); higher = more active; in vitro selection; Mg2+ level not given. A digest of the protocol: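 An in vitro group I ribozyme library with randomized positions was T7-transcribed and gel-purified. In triplicate, 10 pmol RNA in EPPS pH 7.5 was reacted with 50 pmoles of a 30-nt RNA substrate for 1 h at 37 °C across several added MgCl2 levels (1–48 mM), then stopped with EDTA. Products were reverse transcribed from a substrate-complementary primer, PCR-amplified and sequenced (HiSeq 4000). Fitness is a variant's read proportion after selection over that before, normalised to wild type.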
Turning to C82A A111U A145U C150U C169G U176A, the reverse-splicing fitness amounted to 0.0142. For A120U A145G C150U U176G the value was 0.155. Under A111U A120G A145C C150U C169A U176G stands 0.00531; under A111U A120G A145C C150U C169A U176A, 0.012. For C82U A111C A120C C169U U176G the value was 0.00583. With C82G A111U A120G A145G C169A U176A, the reverse-splicing fitness came to 0.0172.

In the case of C82U A120G A145G C150G C169U, the reverse-splicing fitness amounted to 0.0101. Under C82A A120G A145U C150A U176G stands 0.00503.

On to C82U A120G C169A U176C, for which the reverse-splicing fitness stood at 0.0213. Under C82U A120G A145U C150G C169U U176G stands 0.0036. Under C82G A120U A145U U176G stands 0.02; under C82A A111U A120C C150U C169U U176G, 0.00737. Under C82G A111U A120G A145C C150A C169U stands 0.00694; under C82U C150U C169G U176G, 0.0052; under C82A A111G A120U A145G C150U, 0.0257. With C82G A111U A145U C150A C169A U176A, the reverse-splicing fitness came out at 0.0149. Take C82G A111G A145G C169U U176G: the reverse-splicing fitness stood at 0.0049. Under C82U A111G A120G A145C C150U C169U U176G stands 0.00413. Under A111U A145U C150G C169G U176G stands 0.00534. Under A120U A145C C150U stands 0.459; under A111U A145C C150U C169G U176C, 0.0135; under A111G A120C A145U C150A C169U U176A, 0.0204. Turning to C82G A145G C150A C169G U176A, the reverse-splicing fitness is 0.017. For C82G A111U A120C C150U C169G the value was 0.00965; for C82U A120G A145U C150A C169A, 0.00815. Under A120G C150U C169G stands 0.419; under C82U A111C A120G A145U C169G, 0.00905; under C82U A111G A120C A145G C150A C169A U176G, 0.00589.

Turning to A111G A120U C150A C169G U176C, the reverse-splicing fitness was found to be 0.00454. In the case of C82U A111U A120G A145U U176G, the reverse-splicing fitness came to 0.0045. As to A111C A120C U176C, the reverse-splicing fitness came out at 0.204. Under A111C A120C U176A stands 0.186; under C82A A111C A120U A145C, 0.0196; under C82G C169G U176G, 0.00418. Take C82G A111G A120G C150A C169U: the reverse-splicing fitness amounted to 0.00799. Under A111C A120U C150U C169G U176C stands 0.00812; under A111C A145U C150A C169G, 0.0113. A111G A145C C150A C169A U176G: the reverse-splicing fitness turned out to be 0.00629. For C82G A120C A145C C150U C169A U176G the value was 0.00525.

In the case of C82G A111C C150U U176A, the reverse-splicing fitness was 0.0699. Under C82U A111U A120C A145U C150U stands 0.0196; under C82G A111G A120U A145C C150A U176C, 0.00344. For C82U A111G A145G C169A the value was 0.00814; for C82A A111G C169U, 0.0132. For C150A the value was 0.484; for C82U A111G A120C A145C C150U C169A, 0.00705. For the variant C82A A111U A120C A145G C169A, the reverse-splicing fitness is 0.0113. For C82G A111G A145U U176A the value was 0.257; for A111C A120C A145G C150A C169U, 0.0324. As to C82A A120U A145U C150G C169A U176C, the reverse-splicing fitness turned out to be 0.00214.

C82U A111C A120G A145G C169U U176G: the reverse-splicing fitness was found to be 0.00411.

Consider C82U A111C A120C C150A C169G U176A, for which the reverse-splicing fitness was 0.0161. For C82G A111G C150U the value was 0.199.

As to A111U A120C A145C C150A U176A, the reverse-splicing fitness amounted to 0.0267. In the case of A111C A120C C150G C169A U176C, the reverse-splicing fitness was found to be 0.00966. Regarding A111U A120G A145U C150G C169G, the reverse-splicing fitness was found to be 0.021. Take C82G A111G A120C C150G C169A U176G: the reverse-splicing fitness amounted to 0.00813.

On to C82G A145G U176C, for which the reverse-splicing fitness is 0.374. Regarding A111U A145U C169G U176A, the reverse-splicing fitness was 0.016.

In the case of A111G A120G C150G C169U U176A, the reverse-splicing fitness turned out to be 0.0138. As for C82U A111U A120C A145C C150G C169U U176A, the reverse-splicing fitness came out at 0.0108. With C82A A111G A120U C150A C169U, the reverse-splicing fitness was determined as 0.00375. For C82A A111C A120U C150U C169G U176C the value was 0.00483; for A111C A120C A145U U176G, 0.0519; for C82A A111U C150U U176G, 0.0161. For C82A A111G A120C A145G C150A C169A U176G the value was 0.00941; for C82U A111C A120U A145U C150A C169G U176G, 0.00205; for C82G A111G A120G, 0.0208. For C82G A120G C150A the value was 0.00962; for C82A A111U A120C A145C C150U C169A, 0.00907; for C82A A111C A145U C150U C169U U176G, 0.00857. Turning to C82G A111G A120G A145U C150U U176G, the reverse-splicing fitness is 0.00626. Under A111C A120U A145U C150U C169U U176A stands 0.00859; under C82G A111C A120C A145C C150U U176G, 0.00681; under C82U A120C A145U C169G U176C, 0.00836. For A111U A120G A145U C150G C169G U176C the value was 0.0049; for A120G A145C C150U C169U, 0.153; for A111G C169G U176A, 0.0309.

With C82A A111U A145U C150A C169G U176C, the reverse-splicing fitness stood at 0.0188. Under A111U C150G C169G U176A stands 0.00681.

As to C82U A111G A120U A145U C150G C169G U176C, the reverse-splicing fitness worked out at 0.00239. With C82G A120U C169U U176C, the reverse-splicing fitness worked out at 0.00518. As for A111G A120U A145U C150U C169U, the reverse-splicing fitness turned out to be 0.0793.

As to C82A A120G A145G C150G C169U U176C, the reverse-splicing fitness turned out to be 0.0123.
